The source of these data is article PMC8561747 (Cell host & microbe, 2021).

The series deals with the molecule itself. The experiment in a line: SEC.

B1: FMNL1_(1–385) (domain or fragment, human, UniProt O95466 1-385, looked up)
chain: MGNAAGSAEQPAGPAAPPPKQPAPPKQPMPAAGELEERFNRALNCMNLPPDKVQLLSQYDNEKKWELICDQERFQVKNPPAAYIQKLKSYVDTGGVSRKVAADWMSNLGFKRRVQESTQVLRELETSLRTNHIGWVQEFLNEENRGLDVLLEYLAFAQCSVTYDMESTDNGASNSEKNKPLEQSVEDLSKGPPSSVPKSRHLTIKLTPAHSRKALRNSRIVSQKDDVHVCIMCLRAIMNYQSGFSLVMNHPACVNEIALSLNNKNPRTKALVLELLAAVCLVRGGHDIILAAFDNFKEVCGEQHRFEKLMEYFRNEDSNIDFMVACMQFINIVVHSVENMNFRVFLQYEFTHLGLDLYLERLRLTESDKLQVQIQAYLDNIFDVG
For the protein B1, the binding result was “binds”.
